Assays:
c-Src = test: phosphorylation enrichment, bacterial display (enrichment ratio); higher = better substrate or ligand; peptides without Tyr show the background
Fes = Fes (UniProt P07332); test: as above
EPHB1 = EPHB1 (UniProt P54762); test: as above
FGFR3 = FGFR3 (UniProt P22607); test: as above
FGFR1 = FGFR1 (UniProt P11362); test: as above
Fer (mouse) = test: as above
c-Abl (mouse) = test: as above
Jak2 = Jak2 (UniProt O60674); test: as above
AncSZ = test: as above
EPHB2 = EPHB2 (UniProt P29323); test: as above
Fyn = Fyn (UniProt P06241); test: as above
MERTK = MERTK (UniProt Q12866); test: as above
Hck = Hck (UniProt P08631); test: as above
Grb2 SH2 = Grb2 SH2 (UniProt P62993); test: SH2 binding enrichment of the phosphorylated peptide, bacterial display (enrichment ratio); higher = better substrate or ligand; peptides without Tyr show the background
SHP2-C SH2 = test: as above
c-Src SH2 = test: as above
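For SH2 binding enrichment of the phosphorylated peptide, bacterial display in this document: peptide library displayed on the E. coli surface as eCPX fusions, selected cells deep-sequenced, score is each peptide's frequency after selection divided by its frequency in the input.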
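For phosphorylation enrichment, bacterial display in this document: 11-residue human phosphosite peptides and single-mutation variants displayed on the E. coli surface, counted by deep sequencing, each peptide's frequency after selection divided by its frequency in the unselected input library; frequency after pTyr selection over input frequency; kinase dosed for 20-30% of maximal phosphorylation in three min.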

MERTK, sequence (Q12866 whole entry, looked up): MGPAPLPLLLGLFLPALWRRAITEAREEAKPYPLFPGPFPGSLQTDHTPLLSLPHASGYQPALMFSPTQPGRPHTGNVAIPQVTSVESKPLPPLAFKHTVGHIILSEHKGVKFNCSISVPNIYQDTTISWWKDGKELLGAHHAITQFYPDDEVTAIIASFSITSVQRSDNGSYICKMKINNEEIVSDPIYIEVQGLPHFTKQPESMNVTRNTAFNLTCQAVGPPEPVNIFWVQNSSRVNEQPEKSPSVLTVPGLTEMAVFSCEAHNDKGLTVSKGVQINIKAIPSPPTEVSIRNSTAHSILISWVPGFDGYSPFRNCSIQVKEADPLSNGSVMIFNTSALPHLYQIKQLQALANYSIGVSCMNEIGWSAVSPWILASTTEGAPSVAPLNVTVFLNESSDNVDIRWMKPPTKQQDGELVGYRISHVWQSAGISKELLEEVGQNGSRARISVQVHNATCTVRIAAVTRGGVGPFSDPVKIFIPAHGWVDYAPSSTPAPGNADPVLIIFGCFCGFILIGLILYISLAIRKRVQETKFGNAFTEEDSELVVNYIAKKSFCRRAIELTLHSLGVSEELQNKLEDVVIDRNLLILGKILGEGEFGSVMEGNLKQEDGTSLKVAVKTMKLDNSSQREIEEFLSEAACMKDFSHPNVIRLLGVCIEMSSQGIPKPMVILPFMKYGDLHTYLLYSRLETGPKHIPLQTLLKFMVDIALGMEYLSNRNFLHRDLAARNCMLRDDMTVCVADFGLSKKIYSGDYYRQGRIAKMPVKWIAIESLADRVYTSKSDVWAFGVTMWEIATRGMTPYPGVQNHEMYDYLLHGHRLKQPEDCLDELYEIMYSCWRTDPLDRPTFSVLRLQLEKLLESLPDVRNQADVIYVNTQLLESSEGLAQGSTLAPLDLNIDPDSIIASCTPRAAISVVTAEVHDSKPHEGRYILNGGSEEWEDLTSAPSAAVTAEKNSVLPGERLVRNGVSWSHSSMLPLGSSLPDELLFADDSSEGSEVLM
EPHB1, sequence (P54762 whole entry, looked up): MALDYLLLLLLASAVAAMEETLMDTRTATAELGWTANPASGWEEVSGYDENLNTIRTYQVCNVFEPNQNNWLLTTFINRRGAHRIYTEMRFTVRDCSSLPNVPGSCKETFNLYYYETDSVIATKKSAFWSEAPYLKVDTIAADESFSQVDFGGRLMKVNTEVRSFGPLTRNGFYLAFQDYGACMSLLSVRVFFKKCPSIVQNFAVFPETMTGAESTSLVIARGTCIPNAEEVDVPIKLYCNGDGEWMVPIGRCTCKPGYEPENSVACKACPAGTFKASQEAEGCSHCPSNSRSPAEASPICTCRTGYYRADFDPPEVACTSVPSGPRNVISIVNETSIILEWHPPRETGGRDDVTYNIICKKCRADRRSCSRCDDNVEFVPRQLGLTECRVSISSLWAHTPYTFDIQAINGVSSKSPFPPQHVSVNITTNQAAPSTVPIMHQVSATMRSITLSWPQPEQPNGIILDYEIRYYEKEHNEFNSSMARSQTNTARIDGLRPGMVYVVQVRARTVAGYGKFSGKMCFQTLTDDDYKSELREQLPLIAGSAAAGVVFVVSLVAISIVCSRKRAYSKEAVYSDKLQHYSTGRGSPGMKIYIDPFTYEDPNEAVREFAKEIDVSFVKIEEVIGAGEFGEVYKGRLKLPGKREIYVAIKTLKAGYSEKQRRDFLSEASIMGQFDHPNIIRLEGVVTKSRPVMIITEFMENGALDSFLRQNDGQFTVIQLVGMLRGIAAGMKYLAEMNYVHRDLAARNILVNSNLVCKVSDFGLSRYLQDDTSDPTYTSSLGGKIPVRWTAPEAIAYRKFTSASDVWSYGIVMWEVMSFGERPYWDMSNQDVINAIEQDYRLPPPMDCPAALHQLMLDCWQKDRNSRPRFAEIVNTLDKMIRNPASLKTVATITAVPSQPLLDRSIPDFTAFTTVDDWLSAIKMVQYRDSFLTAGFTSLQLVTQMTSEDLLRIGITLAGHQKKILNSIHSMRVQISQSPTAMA
Fes, sequence (P07332 whole entry, looked up): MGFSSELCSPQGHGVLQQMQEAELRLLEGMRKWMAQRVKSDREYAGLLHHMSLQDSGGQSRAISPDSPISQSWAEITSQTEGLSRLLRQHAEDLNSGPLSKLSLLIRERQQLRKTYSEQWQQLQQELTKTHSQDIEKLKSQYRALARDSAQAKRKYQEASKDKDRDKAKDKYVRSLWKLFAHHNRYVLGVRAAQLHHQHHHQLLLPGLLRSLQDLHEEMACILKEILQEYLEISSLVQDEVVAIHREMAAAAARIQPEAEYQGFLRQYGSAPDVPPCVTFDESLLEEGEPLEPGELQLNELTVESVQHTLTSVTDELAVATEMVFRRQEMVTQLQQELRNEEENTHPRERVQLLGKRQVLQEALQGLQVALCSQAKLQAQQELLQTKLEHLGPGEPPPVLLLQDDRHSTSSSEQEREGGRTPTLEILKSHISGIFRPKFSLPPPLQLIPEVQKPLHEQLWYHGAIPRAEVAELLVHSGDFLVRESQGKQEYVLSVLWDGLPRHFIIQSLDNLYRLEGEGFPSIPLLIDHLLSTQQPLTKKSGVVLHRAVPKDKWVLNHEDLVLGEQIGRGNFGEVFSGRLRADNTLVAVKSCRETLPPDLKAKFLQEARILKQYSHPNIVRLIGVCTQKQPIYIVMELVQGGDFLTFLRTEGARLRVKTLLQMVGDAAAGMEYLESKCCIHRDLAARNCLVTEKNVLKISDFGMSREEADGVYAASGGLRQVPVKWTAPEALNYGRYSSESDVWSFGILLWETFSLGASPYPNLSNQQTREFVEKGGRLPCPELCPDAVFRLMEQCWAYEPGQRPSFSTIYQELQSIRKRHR
Jak2, sequence (O60674 whole entry, looked up): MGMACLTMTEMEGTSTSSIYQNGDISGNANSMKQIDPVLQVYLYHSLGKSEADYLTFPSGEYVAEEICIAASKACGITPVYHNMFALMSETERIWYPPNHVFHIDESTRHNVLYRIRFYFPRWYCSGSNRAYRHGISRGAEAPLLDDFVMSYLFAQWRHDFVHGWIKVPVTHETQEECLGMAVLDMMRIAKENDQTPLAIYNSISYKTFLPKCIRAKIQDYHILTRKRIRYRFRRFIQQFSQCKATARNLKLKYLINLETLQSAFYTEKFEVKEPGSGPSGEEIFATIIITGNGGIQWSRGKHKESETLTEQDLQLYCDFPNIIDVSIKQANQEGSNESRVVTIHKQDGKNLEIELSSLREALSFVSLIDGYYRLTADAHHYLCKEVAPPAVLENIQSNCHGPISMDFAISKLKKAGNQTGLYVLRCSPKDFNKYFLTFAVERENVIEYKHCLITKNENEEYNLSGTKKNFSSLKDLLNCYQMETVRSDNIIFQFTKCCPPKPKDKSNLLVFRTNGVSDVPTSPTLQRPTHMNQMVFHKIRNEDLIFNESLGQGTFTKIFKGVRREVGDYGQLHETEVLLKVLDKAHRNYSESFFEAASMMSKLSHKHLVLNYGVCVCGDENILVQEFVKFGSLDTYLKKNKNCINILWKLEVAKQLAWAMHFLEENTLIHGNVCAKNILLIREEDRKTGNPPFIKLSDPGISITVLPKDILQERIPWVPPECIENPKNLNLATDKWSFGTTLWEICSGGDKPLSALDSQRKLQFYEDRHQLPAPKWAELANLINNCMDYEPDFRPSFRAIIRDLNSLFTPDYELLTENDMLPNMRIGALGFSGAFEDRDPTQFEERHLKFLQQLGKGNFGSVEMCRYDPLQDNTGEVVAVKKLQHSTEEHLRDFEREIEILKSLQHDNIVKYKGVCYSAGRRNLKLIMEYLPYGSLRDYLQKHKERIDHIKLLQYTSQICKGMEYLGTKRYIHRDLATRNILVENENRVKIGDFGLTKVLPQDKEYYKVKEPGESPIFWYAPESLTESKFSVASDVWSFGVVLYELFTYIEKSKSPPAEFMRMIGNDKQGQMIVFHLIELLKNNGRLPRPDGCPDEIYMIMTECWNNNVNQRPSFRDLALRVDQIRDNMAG
Fyn, sequence (P06241 whole entry, looked up): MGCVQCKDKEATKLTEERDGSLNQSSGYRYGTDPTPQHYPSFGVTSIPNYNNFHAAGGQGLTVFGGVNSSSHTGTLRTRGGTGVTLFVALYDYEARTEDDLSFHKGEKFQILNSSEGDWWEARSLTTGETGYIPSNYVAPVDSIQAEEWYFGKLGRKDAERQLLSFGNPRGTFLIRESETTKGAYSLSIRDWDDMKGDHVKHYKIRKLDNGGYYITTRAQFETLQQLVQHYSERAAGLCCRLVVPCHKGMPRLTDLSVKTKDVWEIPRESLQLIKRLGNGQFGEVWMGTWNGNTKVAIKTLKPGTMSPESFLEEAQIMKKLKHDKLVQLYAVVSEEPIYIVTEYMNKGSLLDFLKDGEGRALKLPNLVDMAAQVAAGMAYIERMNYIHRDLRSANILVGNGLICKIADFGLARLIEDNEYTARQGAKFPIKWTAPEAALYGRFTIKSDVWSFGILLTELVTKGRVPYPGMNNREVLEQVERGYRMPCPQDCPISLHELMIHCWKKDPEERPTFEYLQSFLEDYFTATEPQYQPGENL
Hck, sequence (P08631 whole entry, looked up): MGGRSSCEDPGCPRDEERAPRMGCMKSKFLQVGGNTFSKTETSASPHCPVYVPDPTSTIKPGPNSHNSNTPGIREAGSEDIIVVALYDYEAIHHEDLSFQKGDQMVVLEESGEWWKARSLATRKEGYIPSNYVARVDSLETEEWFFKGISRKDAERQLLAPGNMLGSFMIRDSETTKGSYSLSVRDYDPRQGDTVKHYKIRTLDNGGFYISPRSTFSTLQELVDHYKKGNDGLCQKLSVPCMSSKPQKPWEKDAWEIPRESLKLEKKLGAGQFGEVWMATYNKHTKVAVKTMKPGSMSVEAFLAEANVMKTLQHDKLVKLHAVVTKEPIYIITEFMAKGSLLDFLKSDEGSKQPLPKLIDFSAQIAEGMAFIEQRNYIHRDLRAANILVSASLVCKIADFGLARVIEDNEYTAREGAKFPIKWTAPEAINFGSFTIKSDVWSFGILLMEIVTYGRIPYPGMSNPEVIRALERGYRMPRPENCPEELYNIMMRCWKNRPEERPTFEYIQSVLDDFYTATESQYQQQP

SH2 binding enrichment (Grb2 SH2)	SH2 binding enrichment (SHP2-C SH2)	SH2 binding enrichment (c-Src SH2)	Sequence	phosphorylation enrichment (c-Src)	phosphorylation enrichment (Fes)	phosphorylation enrichment (EPHB1)	phosphorylation enrichment (FGFR3)	phosphorylation enrichment (FGFR1)	phosphorylation enrichment (Fer (mouse))	phosphorylation enrichment (c-Abl (mouse))	phosphorylation enrichment (Jak2)	phosphorylation enrichment (AncSZ)	phosphorylation enrichment (EPHB2)	phosphorylation enrichment (Fyn)	phosphorylation enrichment (MERTK)	phosphorylation enrichment (Hck)
1.12	0.926	0.813	RTIPDYTSFNT [EPHB2_Y912]	0.923	0.66	0.866	0.991	1.2	0.417	1.02	0.978	0.893	0.632	0.63	0.538	0.561
0.931	0.496	0.452	GIADDYDKKKL [EIF1_Y54]	0.377	0.943	0.456	0.565	0.465	0.4	0.667	0.845	0.882	0.565	0.467	0.383	0.512
1.01	0.761	0.747	CEDGNYSPEIS [PTDSS1_Y424_T423N]	0.618	1.06	0.612	0.637	0.643	0.461	0.785	0.975	1.18	0.871	0.458	0.486	0.668
0.9	0.553	0.5	GTFEDYVEGLR [MYL6_Y89_YF]	0.416	1.11	0.534	0.685	0.545	0.454	0.688	0.971	1.08	0.534	0.427	0.461	0.508
0.681	0.446	0.334	LNECHYGALIG [BPGM_Y92_R90C]	3.61	1.38	0.682	0.886	0.701	1.35	1.4	0.885	0.996	0.878	4.07	0.741	2.93
0.913	1.01	1.3	PVQAVYQKVVA [HBB_Y131_A130V]	1.61	0.532	0.727	0.617	0.421	1.14	0.203	0.289	0.373	0.578	0.677	1.47	1.75
0.835	1.39	0.961	YIGVTYKNKED [PDGFRA_Y993_E996K]	0.476	1.07	0.564	0.747	0.819	0.533	0.675	0.809	0.896	0.505	0.505	0.44	0.753
0.842	0.788	0.522	CEETFYTMKVN [MASP2_Y401]	1.41	1.4	0.766	0.935	0.546	0.738	0.9	1.51	1.48	0.625	1.04	0.529	0.756
0.657	0.702	0.52	GYQPDYGQPAG [SYP_Y278]	0.342	0.671	0.442	0.551	0.465	0.38	0.556	0.564	0.701	0.378	0.384	0.334	0.409
1.07	0.927	0.704	LDCNEYFRDLN [HPRT1_Y198_Y195C]	0.487	1.73	0.933	1.34	0.966	0.697	1.15	1.5	1.82	0.922	0.906	0.687	0.911
1.72	1.46	3.84	EKFVPYYDLFM [IPO5_Y530]	4.22	1.18	4.82	5.89	6.89	3.71	0.787	1.47	1.2	6.87	3.05	7.26	3.27
0.991	0.723	0.679	LPHVIYCRLWR [SMAD2_Y128]	2.05	0.814	1.76	0.555	0.414	0.434	1.47	0.822	1.05	0.758	1.66	0.871	2.31
0.944	0.79	0.744	EEESCYILHSS [PATJ_Y783]	0.819	1.35	0.637	0.853	0.621	0.926	0.892	1.31	1.63	0.625	0.659	0.484	0.57

Second part, the sequence before the results:

Sequence	SH2 binding enrichment (Grb2 SH2)	SH2 binding enrichment (SHP2-C SH2)	SH2 binding enrichment (c-Src SH2)	phosphorylation enrichment (c-Src)	phosphorylation enrichment (Fes)	phosphorylation enrichment (EPHB1)	phosphorylation enrichment (FGFR3)	phosphorylation enrichment (FGFR1)	phosphorylation enrichment (Fer (mouse))	phosphorylation enrichment (c-Abl (mouse))	phosphorylation enrichment (Jak2)	phosphorylation enrichment (AncSZ)	phosphorylation enrichment (EPHB2)	phosphorylation enrichment (Fyn)	phosphorylation enrichment (MERTK)	phosphorylation enrichment (Hck)
SEPSGYQDNIA [DES_Y363_A360P]	0.743	0.92	0.476	0.47	1.05	0.546	0.708	0.488	0.525	0.753	0.953	1.02	0.595	0.724	0.426	0.505
RLLVVYPWTRR [HBB_Y36_Q40R]	0.506	0.448	0.465	0.68	0.626	0.505	0.823	0.567	0.407	0.577	0.469	0.683	0.597	0.523	0.64	1.14
HRGFLYLAIEY [TEK_Y899_Y897F]	1.15	0.77	0.45	0.541	1.76	0.986	0.891	0.549	0.791	1.47	1.49	1.5	0.541	0.54	0.703	0.743
TVLEHYRRTHC [MYBPC3_Y1119]	1.05	1.16	0.713	0.395	0.672	0.468	0.519	0.438	0.408	0.532	0.606	0.526	0.681	0.52	0.569	0.5
DDERGYRRVRS [GIGYF2_Y268]	0.86	0.623	0.656	0.461	0.593	0.306	0.407	0.386	0.406	0.563	0.461	0.563	0.398	0.366	0.455	0.353
QYKGKYLAKHN [CASK_Y712_D710G]	1.42	0.792	1.06	0.519	0.979	0.705	1.29	1.01	0.819	0.934	0.472	0.984	0.699	0.658	0.835	0.752
CTTIHYNFMCH [TP53_Y234_N239H_YF]	1.73	1.92	1.75	0.471	0.97	0.558	0.552	0.507	0.478	0.543	0.75	0.866	0.547	0.533	0.444	0.441
ATHSGYRLNDF [CLDN14_Y233_YF]	1.04	0.542	0.421	0.453	0.601	0.472	0.538	0.322	0.361	0.906	0.558	0.587	0.514	0.419	0.42	0.391
VLNHAYENLTR [SYNE2_Y3255_D3253H]	26.7	1.89	10.5	0.405	0.579	0.366	0.625	0.494	0.417	0.5	0.507	0.565	0.4	0.33	0.303	0.383
FVSAAYVKKLD [SPTAN1_Y1020_P1017S]	0.885	0.804	0.379	0.382	0.65	0.414	0.455	0.421	0.365	0.511	0.403	0.663	0.618	0.365	0.337	0.374
AASTDYFKRGD [PDHA1_Y242_YF]	0.879	0.68	0.416	0.352	0.663	0.372	0.426	0.402	0.363	0.421	0.57	0.625	0.454	0.462	0.325	0.45
TKDTFYQQPMF [GBA_Y451_K452Q]	0.793	0.637	0.902	0.639	0.805	0.583	0.589	0.605	2.41	3.38	0.648	1.07	2.01	0.664	4.31	0.91
AQVDTYCRHNF [HLA-DRB1_Y107_A103Q_YF]	1.06	0.834	0.621	0.434	0.959	0.369	0.472	0.668	0.628	0.59	0.673	0.676	0.479	0.433	0.528	0.446
SFCFRYRCAAQ [SUMF1_Y344_R349Q_YF]	1.52	2.02	1.45	0.555	0.762	0.427	0.463	0.47	0.402	0.682	0.745	1.25	0.523	0.411	0.553	0.514
HSRTRYERNIE [F2_Y434]	1.31	1.37	0.752	0.683	0.986	0.851	0.663	0.835	1.14	0.929	0.742	1.08	0.531	0.465	0.763	0.766
SLIDGYFRLTA [JAK2_Y372_YF]	1.01	5.5	1.13	0.483	1.26	0.539	0.875	0.605	0.514	0.732	5.46	1.1	0.716	0.493	0.429	0.583

From the supplement of paper PMC10065799, “High-throughput profiling of sequence recognition by tyrosine kinases and SH2 domains using bacterial peptide display” (eLife, 2023)
